Measurements as given in FireProtDB (doi:10.1093/protein/10.5.575).

B1: Cytochrome b5, P00171 (parent)
chain: MAEESSKAVKYYTLEEIQKHNNSKSTWLILHYKVYDLTKFLEEHPGGEEVLREQAGGDATENFEDVGHSTDARELSKTFIIGELHPDDRSKITKPSESIITTIDSNPSWWTNWLIPAISALFVALIYHLYTSEN

Variants of: B1
Conditions: Bos taurus, pH 7, Absorbance, phosphate 0.1 M, reversible: yes, structure 1CYO, whole UniProt chain shown

Row | Variant | ddG of mutation (higher = less stable) (30 °C, Urea) | denaturant midpoint (higher = more stable) (30 °C, Urea) | ddG of mutation (higher = less stable) (66.2 °C, Thermal) | Tm (Thermal) | change of melting temperature, mutant - wild type (higher = more stable) (Thermal) | unfolding enthalpy (van 't Hoff) (Thermal) | unfolding enthalpy (van 't Hoff) (66.2 °C, Thermal)
1 | F40L | 1.87 kcal/mol | 4.9 M | 1.87 kcal/mol | 59.1 °C | -7.1 °C | 104 kcal/mol | 
2 | F40H |  |  | 2.82 kcal/mol | 54.9 °C | -11.3 °C | 94.7 kcal/mol | 
3 | F40Y | -1.03 kcal/mol | 8.3 M | -0.79 kcal/mol | 69.6 °C | 3.4 °C | 86.4 kcal/mol | 86.4 kcal/mol
